According to patent US6916472B2, “PON3 and uses thereof” (Regents of the University of Michigan, priority 2000, dated 2005):

What was measured:
LDL = experiment: Protection of LDL against copper-induced oxidation (conjugated dienes, lipid peroxides); assay type: biochemical, rabbit; settings: LDL 0.1 mg protein/ml, 2-10 μM CuSO4, up to 5 h at 37° C.
Protocol: In one illustrative example (Example 5) of the present invention, the ability of PON3 to protect against LDL oxidation was assayed. In this example, LDL oxidation was induced by the incubation of the lipoprotein with 2-10 μM CuSO4 in the air, in the absence or presence of PON3 or PON 1, for up to 5 h at 37° C. The kinetics of lipoprotein oxidation was followed by monitoring the conjugated dienes formation at 234 nm (Esterbauer et al., Free Radical Res Commun, 6:67-75 [1989]) using a quartz microtiter plate in a SPECTRAmax® 190 plate reader (Molecular Devices). Lipoprotein oxidation was also determined by the lipid peroxides test, which analyzes lipid peroxides by their capacity to convert iodide to iodine, as measured photometrically at 365 nm (E1-Saadani et al., J Lipid Res, 30:627-630 [1989]).
LDL were isolated by ultracentrifugation as described above (Example 4). […] The kinetics of lipoprotein oxidation was followed by monitoring the conjugated dienes formation at 234 nm (Esterbauer et al., Free Radical Res Commun, 6:67-75 [1989]) using a quartz microtiter plate in a SPECTRAmax 190 plate reader (Molecular Devices). Lipoprotein oxidation was also determined by the lipid peroxides test, which analyzes lipid peroxides by their capacity to convert iodide to iodine, as measured photometrically at 365 nm (E1-Saadani et al., J Lipid Res, 30:627-630 [1989]).

[1] = Lactonase activity of wild type and mutant rPON3 in expression media of transfected 293T cells; assay type: biochemical; settings: Lovastatin hydrolysis; based on quantitation of western blot
Protocol: The hydrolysis of the statin lactones (mevastatin, lovastatin and simvastatin) was analyzed by high performance liquid chromatography (HPLC) using a Beckman System Gold HPLC with a Model 126 Programmable Solvent Module, a Model 168 Diode Array Detector set at 238 nm, a Model 7125 Rheodyne manual injector valve with a 20 μl loop, and a Beckman ODS Ultrasphere column (C 18, 250×4.6 mm, 5 μm). Lovastatin (Mevacor) and simvastatin were purchased as 20 mg tablets from Merck, from which the lactones were extracted with chloroform, evaporated to dryness and redissolved in methanol. Mevastatin was purchased from Sigma. […]
Samples were eluted isocratically at a flow rate of 1.0 ml/min with a mobile phase consisting of the following: A=acetic acid/acetonitrile/water (2:249:249, v/v/v) and B=acetonitrile, in A/B ratios of 50/50, 45/55 and 40/60 for mevastatin, lovastatin and simvastatin, respectively. […] Response factors for the acid products were calculated from the peak heights after complete alkaline hydrolysis of the lactones in 0.02 M NAOH for 2-24 hours at 25° C.
Expression media from the transient transfection of mutant clones into 293T cells was analyzed for activity towards the lactone Lovastatin up to 4 days post transfection.
Specific activities were calculated based on quantitation of the western blot in FIG. 10. […]

[2] = test system: mice given LD100 dose of LPS; settings: cited from earlier work
[3] = Statinase activity of samples of BL21(DE3) culture expressing rPON3; assay type: biochemical; settings: culture sample
Protocol: The hydrolysis of the statin lactones (mevastatin, lovastatin and simvastatin) was analyzed by high performance liquid chromatography (HPLC) using a Beckman System Gold HPLC with a Model 126 Programmable Solvent Module, a Model 168 Diode Array Detector set at 238 nm, a Model 7125 Rheodyne manual injector valve with a 20 μl loop, and a Beckman ODS Ultrasphere column (C 18, 250×4.6 mm, 5 μm). Lovastatin (Mevacor) and simvastatin were purchased as 20 mg tablets from Merck, from which the lactones were extracted with chloroform, evaporated to dryness and redissolved in methanol. Mevastatin was purchased from Sigma.
In a final volume of 1 ml, 10-200 μl of enzyme solution and 10 μl of substrate solution in methanol (0.5 mg/ml) were incubated at 25° C. in 50 mM Tris/HCl (pH 7.6), 1 mM CaCl2. Aliquots (100 μl) were removed at specified times and added to acetonitrile (100 μl), vortexed, and centrifuged for one minute at maximum speed (Beckman microfuge). The supernatants were poured into new tubes, capped and stored on ice until HPLC analysis.
Samples were eluted isocratically at a flow rate of 1.0 ml/min with a mobile phase consisting of the following: A=acetic acid/acetonitrile/water (2:249:249, v/v/v) and B=acetonitrile, in A/B ratios of 50/50, 45/55 and 40/60 for mevastatin, lovastatin and simvastatin, respectively. Under the above conditions the retention times for the carboxylic acid formed and the lactone substrate were as follows: 4.5/6.4 min (mevastatin), 4.4/5.6 min (lovastatin) and 5.4/7.7 min (simvastatin), respectively. Response factors for the acid products were calculated from the peak heights after complete alkaline hydrolysis of the lactones in 0.02 M NAOH for 2-24 hours at 25° C.
This Example describes the expression of rabbit PON3 protein in bacteria. The endogenous NcoI site at the translation start site, and an engineered XhoI site in the 3′ UTR were used to clone the rPON3 cDNA into the bacterial expression vector pET24d+. The resulting vector (prPON3/pET24d) was transformed into bacterial BL21(DE3) cells. LB broth supplemented with […] Kanamycin was inoculated with a single colony and the bacteria were grown at 37° C. When the culture reached an OD600 of 0.7, IPTG (1 mM) was added and growth continued. Samples of the culture were taken at the time of induction and 1, 2, 4, and 16 hours post-induction. Samples were electrophoresed through a 10% SDS-PAGE gel and Western blotted with a human PON1 antibody. An inducible, 40 kDa band was visible in the 1, 2, 4, and 16 time point lanes that aligned with a rPON3 standard. The samples were also assayed and found to have 257, 8663, 6178, 5872, and 8436 U/ml statinase activity for time points 0, 1, 2, 4, and 16 respectively.

B1: PON3: paroxonase 3 polypeptide purified from rabbit serum, 40 kDa, SEQ ID NO:8 (protein, listed as Oryctolagus cuniculus)
chain: MAKLLLLTLLGASLAFVGERLLAFRNSFGAVQELEPVEPQNCVLIEGLENGSEDIDILPSGLAFISSGLKYPGMPNFAPDEPGKIFLIDMNEKNPRAQELEISNGFEKESFNPHGISTFIDKDHTVYLYVVNHPHMKSTVEIFKFEEQQRSLVHLKTIKHELLKSVNNIVVLGPEQFYATRDHYFTNYVLALLEMFLDLHWTSVLFYSPKEVKVVAKGFSSANGITVSLDKKYVYVADATAKNVHVMEKHDNWDLTELKVIHLDTLVDNLSVDPATGDILAGCHPNGMKLLNYNPEDPPGSEVLRIQNVLSEKPRVSTVYTNDGSVLQGSTVASVYQGKILIGTIFHKTLYCVL
For B1, the “inhibiting conjugated diene and lipid peroxide formation, compared with PON1” value (LDL) was “significantly better”.

B2: L281W: site-directed single amino acid change mutant of rabbit PON3, SEQ ID NO:14 (protein, listed as Oryctolagus cuniculus)
chain: MAKLLLLTLLGASLAFVGERLLAFRNSFGAVQELEPVEPQNCVLIEGLENGSEDIDILPSGLAFISSGLKYPGMPNFAPDEPGKIFLIDMNEKNPRAQELEISNGFEKESFNPHGISTFIDKDHTVYLYVVNHPHMKSTVEIFKFEEQQRSLVHLKTIKHELLKSVNNIVVLGPEQFYATRDHYFTNYVLALLEMFLDLHWTSVLFYSPKEVKVVAKGFSSANGITVSLDKKYVYVADATAKNVHVMEKHDNWDLTELKVIHLDTLVDNLSVDPATGDIWAGCHPNGMKLLNYNPEDPPGSEVLRIQNVLSEKPRVSTVYTNDGSVLQGSTVASVYQGKILIGTIFHKTLYCVL
With B2 the “specific activity compared to the wild type (fraction)” value [1] was “about ⅓”.

B3: K243H: site-directed single amino acid change mutant of rabbit PON3, SEQ ID NO:12 (protein, listed as Oryctolagus cuniculus)
chain: MAKLLLLTLLGASLAFVGERLLAFRNSFGAVQELEPVEPQNCVLIEGLENGSEDIDILPSGLAFISSGLKYPGMPNFAPDEPGKIFLIDMNEKNPRAQELEISNGFEKESFNPHGISTFIDKDHTVYLYVVNHPHMKSTVEIFKFEEQQRSLVHLKTIKHELLKSVNNIVVLGPEQFYATRDHYFTNYVLALLEMFLDLHWTSVLFYSPKEVKVVAKGFSSANGITVSLDKKYVYVADATAHNVHVMEKHDNWDLTELKVIHLDTLVDNLSVDPATGDILAGCHPNGMKLLNYNPEDPPGSEVLRIQNVLSEKPRVSTVYTNDGSVLQGSTVASVYQGKILIGTIFHKTLYCVL
In the case of B3, the “specific activity compared to the wild type (fraction)” value [1] is reported as “about ⅓”.

B4: human PON1: purified human PON1 (paraoxonase 1), literature study of LaDu et al. (protein, UniProt P27169 2-355, looked up)
Serum …: AKLIALTLLGMGLALFRNHQSSYQTRLNALREVQPVELPNCNLVKGIETGSEDLEILPNGLAFISSGLKYPGIKSFNPNSPGKILLMDLNEEDPTVLELGITGSKFDVSSFNPHGISTFTDEDNAMYLLVVNHPDAKSTVELFKFQEEEKSLLHLKTIRHKLLPNLNDIVAVGPEHFYGTNDHYFLDPYLQSWEMYLGLAWSYVVYYSPSEVRVVAEGFDFANGINISPDGKYVYIAELLAHKIHVYEKHANWTLTPLKSLDFNTLVDNISVDPETGDLWVGCHPNGMKIFFYDSENPPASEVLRIQNILTEEPKVTQVYAENGTVLQGSTVASVYKGKLLIGTVFHKALYCEL
For B4, the “survival, pretreated animals” value ([2]; i.p. injection before LD100 dose of LPS) is given as 60% and the “survival, post-treated animals” value ([2]; i.p. injection up to 2 hours after LD100 dose of LPS) is given as 30%.

B5: rPON3: recombinant rabbit PON3 expressed in 293T cells or E. coli BL21(DE3) (protein)
chain: AKLLLLTLLGASLAFVGERLLAFRNSFGAVQELEPVEPQNCVLIEGLENGSEDIDILPSGLAFISSGLKYPGMPNFAPDEPGKIFLIDMNEKNPRAQELEISNGFEKESFNPHGISTFIDKDHTVYLYVVNHPHMKSTVEIFKFEEQQRSLVHLKTIKHELLKSVNNIVVLGPEQFYATRDHYFTNYVLALLEMFLDLHWTSVLFYSPKEVKVVAKGFSSANGITVSLDKKYVYVADATAKNVHVMEKHDNWDLTELKVIHLDTLVDNLSVDPATGDILAGCHPNGMKLLNYNPEDPPGSEVLRIQNVLSEKPRVSTVYTNDGSVLQGSTVASVYQGKILIGTIFHKTLYCVL
B5 showed a statinase activity ([3]; 1 hour post-induction) of 8663 U/ml, a statinase activity ([3]; 2 hours post-induction) of 6178 U/ml and a statinase activity ([3]; 4 hours post-induction) of 5872 U/ml. The statinase activity ([3]; 16 hours post-induction) was 8436 U/ml and the statinase activity ([3]; time point 0 (time of IPTG induction)) was 257 U/ml.
